The chains are these.
B1: KIAA0774 (parent)
chain: FEDEVKRLGWQQQAELQELEERLQ
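Also: lentivirally expressed fusions sorted by FACS into six bins by GFP to DsRed ratio, PSI derived from sequencing read proportions per bin multiplied by bin number.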

The variants in the data set derive from B1. Nature of the data set: protein stability index of a GFP-peptide fusion (GPS, HEK-293T) (PSI 1-6); higher = more stable. Conditions: c terminus: a fixed tail appended.
For the variant FEDEVARLGWQQQAELQELEERLQ [K6A], the protein stability index was determined as 4.54.

For the variant FEDEVQRLGWQQQAELQELEERLQ [K6Q], the protein stability index came to 4.07.

With FEDEVLRLGWQQQAELQELEERLQ [K6L], the protein stability index was determined as 4.12.

In the case of FEDEVMRLGWQQQAELQELEERLQ [K6M], the protein stability index amounted to 4.17.

On to FEDEVCRLGWQQQAELQELEERLQ [K6C], for which the protein stability index stood at 3.87.

Consider FEDEVNRLGWQQQAELQELEERLQ [K6N], for which the protein stability index came out at 4.16.

With FEEEVKRLGWQQQAELQELEERLQ [D3E], the protein stability index stood at 3.86.

For the variant FEHEVKRLGWQQQAELQELEERLQ [D3H], the protein stability index came out at 2.99.

For the variant FEKEVKRLGWQQQAELQELEERLQ [D3K], the protein stability index stood at 2.03.

Regarding FEIEVKRLGWQQQAELQELEERLQ [D3I], the protein stability index worked out at 1.66.

As to FECEVKRLGWQQQAELQELEERLQ [D3C], the protein stability index came out at 2.3.

On to FEVEVKRLGWQQQAELQELEERLQ [D3V], for which the protein stability index stood at 2.76.

Regarding FEWEVKRLGWQQQAELQELEERLQ [D3W], the protein stability index came out at 3.19.

Turning to FEPEVKRLGWQQQAELQELEERLQ [D3P], the protein stability index worked out at 3.42.

With FEMEVKRLGWQQQAELQELEERLQ [D3M], the protein stability index stood at 2.59.

As to FEGEVKRLGWQQQAELQELEERLQ [D3G], the protein stability index is 3.23.

Consider FEAEVKRLGWQQQAELQELEERLQ [D3A], for which the protein stability index was determined as 3.33.

For FEFEVKRLGWQQQAELQELEERLQ [D3F], the protein stability index amounted to 2.72.

As to FENEVKRLGWQQQAELQELEERLQ [D3N], the protein stability index is 2.75.

As to FESEVKRLGWQQQAELQELEERLQ [D3S], the protein stability index came out at 2.58.

For the variant FETEVKRLGWQQQAELQELEERLQ [D3T], the protein stability index was 2.69.

Regarding FEQEVKRLGWQQQAELQELEERLQ [D3Q], the protein stability index was 3.29.

FEREVKRLGWQQQAELQELEERLQ [D3R]: the protein stability index was 2.35.

Take FEYEVKRLGWQQQAELQELEERLQ [D3Y]: the protein stability index was found to be 2.85.

In the case of FELEVKRLGWQQQAELQELEERLQ [D3L], the protein stability index was 2.95.

Turning to FEDEVKRLGNQQQAELQELEERLQ [W10N], the protein stability index stood at 5.54.

For the variant FEDEVKRLGKQQQAELQELEERLQ [W10K], the protein stability index was determined as 5.13.

As to FEDEVKRLGLQQQAELQELEERLQ [W10L], the protein stability index is 5.35.

As to FEDEVKRLGFQQQAELQELEERLQ [W10F], the protein stability index worked out at 4.41.

Regarding FEDEVKRLGGQQQAELQELEERLQ [W10G], the protein stability index turned out to be 5.07.

Take FEDEVKRLGDQQQAELQELEERLQ [W10D]: the protein stability index was 5.8.

FEDEVKRLGMQQQAELQELEERLQ [W10M]: the protein stability index is 5.65.

On to FEDEVKRLGAQQQAELQELEERLQ [W10A], for which the protein stability index turned out to be 5.49.

In the case of FEDEVKRLGHQQQAELQELEERLQ [W10H], the protein stability index turned out to be 5.09.

Consider FEDEVKRLGCQQQAELQELEERLQ [W10C], for which the protein stability index worked out at 4.97.

On to FEDEVKRLGEQQQAELQELEERLQ [W10E], for which the protein stability index amounted to 5.57.

With FEDEVKRLGIQQQAELQELEERLQ [W10I], the protein stability index was determined as 4.66.

As to FEDEVKCLGWQQQAELQELEERLQ [R7C], the protein stability index was found to be 4.61.

Consider FEDEVKQLGWQQQAELQELEERLQ [R7Q], for which the protein stability index was 4.79.

As for FEDEVKHLGWQQQAELQELEERLQ [R7H], the protein stability index was 4.04.

As for FEDEVKALGWQQQAELQELEERLQ [R7A], the protein stability index was 4.65.

Turning to FEDEVKVLGWQQQAELQELEERLQ [R7V], the protein stability index was found to be 3.9.

As for FEDEVKLLGWQQQAELQELEERLQ [R7L], the protein stability index came to 3.68.

Consider FEDEVKNLGWQQQAELQELEERLQ [R7N], for which the protein stability index was determined as 4.12.

Regarding FEDEVKILGWQQQAELQELEERLQ [R7I], the protein stability index was 3.67.

Regarding FEDEVKWLGWQQQAELQELEERLQ [R7W], the protein stability index stood at 4.03.

Turning to FEDEVKPLGWQQQAELQELEERLQ [R7P], the protein stability index was determined as 4.19.

With FEDEVKFLGWQQQAELQELEERLQ [R7F], the protein stability index turned out to be 4.32.

Turning to FEDEVKMLGWQQQAELQELEERLQ [R7M], the protein stability index worked out at 4.41.

For the variant FEDEVKELGWQQQAELQELEERLQ [R7E], the protein stability index is 4.53.

FEDEVKKLGWQQQAELQELEERLQ [R7K]: the protein stability index came to 3.32.

In the case of FEDEVKYLGWQQQAELQELEERLQ [R7Y], the protein stability index was found to be 4.21.

For the variant FEDEVKTLGWQQQAELQELEERLQ [R7T], the protein stability index worked out at 4.45.

Take FEDEVKSLGWQQQAELQELEERLQ [R7S]: the protein stability index was 4.65.

Take FEDEVKGLGWQQQAELQELEERLQ [R7G]: the protein stability index is 4.9.

In the case of FEDEVKDLGWQQQAELQELEERLQ [R7D], the protein stability index came to 4.89.

As for FEDEPKRLGWQQQAELQELEERLQ [V5P], the protein stability index worked out at 4.01.

Consider FEDEYKRLGWQQQAELQELEERLQ [V5Y], for which the protein stability index was 4.24.

Take FEDEEKRLGWQQQAELQELEERLQ [V5E]: the protein stability index worked out at 4.44.

For FEDECKRLGWQQQAELQELEERLQ [V5C], the protein stability index came to 3.6.

With FEDEQKRLGWQQQAELQELEERLQ [V5Q], the protein stability index was determined as 4.13.

In the case of FEDESKRLGWQQQAELQELEERLQ [V5S], the protein stability index came to 3.47.

Regarding FEDEHKRLGWQQQAELQELEERLQ [V5H], the protein stability index is 4.15.

In the case of FEDENKRLGWQQQAELQELEERLQ [V5N], the protein stability index came to 4.08.

In the case of FEDELKRLGWQQQAELQELEERLQ [V5L], the protein stability index was 3.4.

Take FEDEGKRLGWQQQAELQELEERLQ [V5G]: the protein stability index stood at 3.99.

As for FEDEWKRLGWQQQAELQELEERLQ [V5W], the protein stability index worked out at 3.5.

Turning to FEDEKKRLGWQQQAELQELEERLQ [V5K], the protein stability index turned out to be 2.54.

As for FEDEIKRLGWQQQAELQELEERLQ [V5I], the protein stability index worked out at 3.87.

Turning to FEDEAKRLGWQQQAELQELEERLQ [V5A], the protein stability index turned out to be 3.86.

As to FEDETKRLGWQQQAELQELEERLQ [V5T], the protein stability index came to 3.5.

With FEDEMKRLGWQQQAELQELEERLQ [V5M], the protein stability index stood at 4.19.

Take FEDEDKRLGWQQQAELQELEERLQ [V5D]: the protein stability index amounted to 4.37.

On to FEDEFKRLGWQQQAELQELEERLQ [V5F], for which the protein stability index was found to be 2.77.

As for FEDERKRLGWQQQAELQELEERLQ [V5R], the protein stability index was found to be 2.75.

As to FEDEVKRLDWQQQAELQELEERLQ [G9D], the protein stability index turned out to be 3.9.

Consider FEDEVKRLRWQQQAELQELEERLQ [G9R], for which the protein stability index came out at 3.75.

Turning to FEDEVKRLWWQQQAELQELEERLQ [G9W], the protein stability index was determined as 3.54.

For FEDEVKRLEWQQQAELQELEERLQ [G9E], the protein stability index came out at 4.63.

On to FEDEVKRLLWQQQAELQELEERLQ [G9L], for which the protein stability index is 3.15.

In the case of FEDEVKRLAWQQQAELQELEERLQ [G9A], the protein stability index was found to be 3.83.

In the case of FEDEVKRLCWQQQAELQELEERLQ [G9C], the protein stability index was 3.36.

For FEDEVKRLIWQQQAELQELEERLQ [G9I], the protein stability index is 3.73.

As for FEDEVKRLYWQQQAELQELEERLQ [G9Y], the protein stability index was found to be 4.13.

FEDEVKRLMWQQQAELQELEERLQ [G9M]: the protein stability index amounted to 3.13.

As to FEDEVKRLQWQQQAELQELEERLQ [G9Q], the protein stability index was 3.83.

With FEDEVKRLVWQQQAELQELEERLQ [G9V], the protein stability index worked out at 4.02.

Turning to FEDEVKRLKWQQQAELQELEERLQ [G9K], the protein stability index worked out at 3.23.

In the case of FEDEVKRLSWQQQAELQELEERLQ [G9S], the protein stability index worked out at 1.91.

With FEDEVKRLHWQQQAELQELEERLQ [G9H], the protein stability index was 4.11.

As to FEDEVKRLTWQQQAELQELEERLQ [G9T], the protein stability index was determined as 2.04.

Turning to FEDEVKRLPWQQQAELQELEERLQ [G9P], the protein stability index turned out to be 4.17.

Regarding FEDEVKRLNWQQQAELQELEERLQ [G9N], the protein stability index was 2.62.

Regarding FEDEVKRLFWQQQAELQELEERLQ [G9F], the protein stability index is 3.96.

The record behind these values is the supplement of paper PMC10567573.
